Assay [1] addresses T1, recombinant human CD3 epsilon/gamma heterodimer (human, UniProt P07766 23-126; P09693 23-116).
T1 construct: Recombinant protein in solution (200-50 nM) in the Octet assay; also called hCD3 E/G
The assay can be described thus: Octet BLI, mAb on FAB2G sensor, hCD3 E/G 200-50 nM; R^2 0.34.

The target of assay [2] is T2, recombinant human CD3 epsilon/delta heterodimer (human, UniProt P07766 23-126; P04234 22-105).
T2 construct: Recombinant protein in solution (200-50 nM) in the Octet assay; also called hCD3 E/D; human CD3E/D
T2 sequence (P07766 23-126, stated change not applied, chain 1 of 2): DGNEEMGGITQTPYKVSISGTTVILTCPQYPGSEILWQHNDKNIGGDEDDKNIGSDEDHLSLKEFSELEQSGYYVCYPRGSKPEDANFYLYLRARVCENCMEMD
T2 sequence (P04234 22-105, stated change not applied, chain 2 of 2): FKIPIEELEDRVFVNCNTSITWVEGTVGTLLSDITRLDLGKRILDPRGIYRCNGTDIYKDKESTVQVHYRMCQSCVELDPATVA
The assay can be described thus: Octet BLI, mAb on FAB2G sensor, hCD3 E/D 200-50 nM; R^2 0.96.
Experimental: Samples were evaluated by flow cytometry analysis against Jurkat and human Pan-T cells (FIG. 1B) as well as by Octet against recombinant human CD3 proteins to evaluate apparent affinities and binding off-rates (Table 6, infra).

Assay [3] has as its target T3, recombinant CD3 proteins (UniProt P07766 23-126).
T3 construct: elsewhere it uses human CD3 E/D and E/G heterodimers
The assay can be described thus: Octet BLI, recombinant CD3; Full R^2 0.986.

For assay [4], the target named is T3, recombinant CD3 proteins. The assay can be described thus: Octet BLI, recombinant CD3; Full R^2 0.814*.
Assay [5] deals with T3, recombinant CD3 proteins. The assay can be described thus: Octet BLI, recombinant CD3; Full R^2 0.985.

Bounds are passed on as bounds.

We go through four molecules from patent US20260167721A1 (ABLEXIS, published 2026).

T3 sequence (P07766 23-126): as the sequence (P07766 23-126, stated change not applied, chain 1 of 2) above
T1 sequence (P07766 23-126, chain 1 of 2): as the sequence (P07766 23-126, stated change not applied, chain 1 of 2) above
T1 sequence (P09693 23-116, chain 2 of 2): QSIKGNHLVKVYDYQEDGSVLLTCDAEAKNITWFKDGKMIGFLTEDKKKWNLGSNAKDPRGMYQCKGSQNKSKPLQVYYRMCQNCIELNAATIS

B1: ABL-CD3-13 (antibody, V domains shown)
VH: EVQLVESGGGLVQPGGSLRLSCAASGFTFSNYWMSWVRQAPGKGLEWVANIKEDGSEKYYVDSVKGRFTISRDNAKNSLYLQMNSLTAEDTSVYYCARERRTGYFDYWGQGTLVTVSS
VL: DIQMTQSPSTLSASVGDRVTITCRASQSISNWLAWYQQKPGKAPNLLIYKASSLESGVPSRFSGSGSGTEFTLTISSLQPDDFANYYCQQYKSYSWTFGQGTKVEIK
notes: Chimeric hybridoma mAb: human V, CH1, upper hinge; mouse middle hinge, CH2, CH3
Consider B1, for which, in assay [1], the Kd is below 0.001 nM, the koff is below 1e-07 s⁻¹ and the kon worked out at 26700 M⁻¹ s⁻¹. Besides, in assay [2], the dissociation constant (Kd) came to 23.4 nM, the Response was 0.08, the koff amounted to 0.000728 s⁻¹ and the kon was determined as 31200 M⁻¹ s⁻¹.

B2: CD3 × CD33-BspAb119 (bispecific antibody)
chain 1: NFMLTQPHSVSESPGKTVTISCTRSSGSIASNYVQWYQQRPGSSPTTVIYEDNQRPSGVPDRFSGSIDSSSNSASLTISGLKTEDEADYYCQSYDSSNRVFGCGTKLTVLGGGGSGGGGSGGGGSGGGGSEVQVAESGGGLVKPGGSLRLSCAASGFTFSRYSMNWVRQAPGKCLEWVSSISSSGSYTYYADSVKGRFTISRDNAKNSLYLQMNSLRAEDTAVYYCVRERGKGAGMDVWGQGTTVTVSSDKTHTCPPCPAPEFEGGPSVFLFPPKPKDTLMISRTPEVTCVVVDVSHEDPEVKFNWYVDGVEVHNAKTKPREEQYNSTYRVVSVLTVLHQDWLNGKEYKCKVSNKALPASIEKTISKAKGQPREPQVYTLPPCREEMTKNQVSLWCLVKGFYPSDIAVEWESNGQPENNYKTTPPVLDSDGSFFLYSKLTVDKSRWQQGNVFSCSVMHEALHNHYTQKSLSLSPGK
chain 2: EVQLVQSGAEVKKPGSSVKVSCKASGYTITDSNIHWVRQAPGQSLEWIGYIYPYNGGTDYNQKFKNRATLTVDNPTNTAYMELSSLRSEDTAFYYCVNGNPWLAYWGQGTLVTVSSASTKGPSVFPLAPSSKSTSGGTAALGCLVKDYFPEPVTVSWNSGALTSGVHTFPAVLQSSGLYSLSSVVTVPSSSLGTQTYICNVNHKPSNTKVDKRVEPKSCDKTHTCPPCPAPEFEGGPSVFLFPPKPKDTLMISRTPEVTCVVVDVSHEDPEVKFNWYVDGVEVHNAKTKPREEQYNSTYRVVSVLTVLHQDWLNGKEYKCKVSNKALPASIEKTISKAKGQPREPQVCTLPPSREEMTKNQVSLSCAVKGFYPSDIAVEWESNGQPENNYKTTPPVLDSDGSFFLVSKLTVDKSRWQQGNVFSCSVMHEALHNRFTQKSLSLSPGK
chain 3: DIQLTQSPSTLSASVGDRVTITCRASESLDNYGIRFLTWFQQKPGKAPKLLMYAASNQGSGVPSRFSGSGSGTEFTLTISSLQPDDFATYYCQQTKEVPWSFGQGTKVEVKRTVAAPSVFIFPPSDEQLKSGTASVVCLLNNFYPREAKVQWKVDNALQSGNSQESVTEQDSKDSTYSLSSTLTLSKADYEKHKVYACEVTHQGLSSPVTKSFNRGEC
Regarding B2, in assay [3], the Kd was 21.7 nM, the koff came to 0.00688 s⁻¹ and the on-rate constant (kon) came out at 317000 M⁻¹ s⁻¹.

B3: CD3 × CD33-BspAb121 (bispecific antibody)
chain 1: QTVVTQEPSLTVSPGGTVTLTCASSTGAVTSGYYPNWFQQKPGQAPRALIYSTSNKHSWTPARFSGSLLGGKAALTLSGVQPEDEAEYYCLLYYGGAYVFGCGTKVTVLGGGGSGGGGSGGGGSGGGGSEVQLVESGGGLVKPGGSLRLSCAASGFTFSSYSMNWVRQAPGKCLEWVSSISRSGTYIYYADSVKGRFTISRDNAKNSLYLQMNSLRAEDTAVYYCARERWELLYFDYWGQGTLVTVSSDKTHTCPPCPAPEFEGGPSVFLFPPKPKDTLMISRTPEVTCVVVDVSHEDPEVKFNWYVDGVEVHNAKTKPREEQYNSTYRVVSVLTVLHQDWLNGKEYKCKVSNKALPASIEKTISKAKGQPREPQVYTLPPCREEMTKNQVSLWCLVKGFYPSDIAVEWESNGQPENNYKTTPPVLDSDGSFFLYSKLTVDKSRWQQGNVFSCSVMHEALHNHYTQKSLSLSPGK
chain 2: EVQLVQSGAEVKKPGSSVKVSCKASGYTITDSNIHWVRQAPGQSLEWIGYIYPYNGGTDYNQKFKNRATLTVDNPTNTAYMELSSLRSEDTAFYYCVNGNPWLAYWGQGTLVTVSSASTKGPSVFPLAPSSKSTSGGTAALGCLVKDYFPEPVTVSWNSGALTSGVHTFPAVLQSSGLYSLSSVVTVPSSSLGTQTYICNVNHKPSNTKVDKRVEPKSCDKTHTCPPCPAPEFEGGPSVFLFPPKPKDTLMISRTPEVTCVVVDVSHEDPEVKFNWYVDGVEVHNAKTKPREEQYNSTYRVVSVLTVLHQDWLNGKEYKCKVSNKALPASIEKTISKAKGQPREPQVCTLPPSREEMTKNQVSLSCAVKGFYPSDIAVEWESNGQPENNYKTTPPVLDSDGSFFLVSKLTVDKSRWQQGNVFSCSVMHEALHNRFTQKSLSLSPGK
chain 3: DIQLTQSPSTLSASVGDRVTITCRASESLDNYGIRFLTWFQQKPGKAPKLLMYAASNQGSGVPSRFSGSGSGTEFTLTISSLQPDDFATYYCQQTKEVPWSFGQGTKVEVKRTVAAPSVFIFPPSDEQLKSGTASVVCLLNNFYPREAKVQWKVDNALQSGNSQESVTEQDSKDSTYSLSSTLTLSKADYEKHKVYACEVTHQGLSSPVTKSFNRGEC
As to B3, in assay [4], the Kd amounted to 1210 nM, the off-rate (koff) was 0.0216 s⁻¹ and the on-rate (kon) amounted to 17900 M⁻¹ s⁻¹.

B4: CD3 × CD33-BspAb120 (bispecific antibody)
chain 1: NFMLTQPHSVSESPGKTVAISCTRSSGSIASNYVQWYQQRPGSSPTAVIYEDNQRPSGVPDRFSGSIDSSSNSAFLTISGLKTEDEADYYCQSYDSSNRVFGCGTKLTVLGGGGSGGGGSGGGGSGGGGSEVQLVESGGGLVKPGGSLRLSCAASGFTFSSYSMNWVRQAPGKCLEWVSSISRSSGYIFYADSVKGRFTISRDNAKNSLYLQMNSLRAEDTAVYYCVRERVGAGFDYWGQGTLVTVSSDKTHTCPPCPAPEFEGGPSVFLFPPKPKDTLMISRTPEVTCVVVDVSHEDPEVKFNWYVDGVEVHNAKTKPREEQYNSTYRVVSVLTVLHQDWLNGKEYKCKVSNKALPASIEKTISKAKGQPREPQVYTLPPCREEMTKNQVSLWCLVKGFYPSDIAVEWESNGQPENNYKTTPPVLDSDGSFFLYSKLTVDKSRWQQGNVFSCSVMHEALHNHYTQKSLSLSPGK
chain 2: EVQLVQSGAEVKKPGSSVKVSCKASGYTITDSNIHWVRQAPGQSLEWIGYIYPYNGGTDYNQKFKNRATLTVDNPTNTAYMELSSLRSEDTAFYYCVNGNPWLAYWGQGTLVTVSSASTKGPSVFPLAPSSKSTSGGTAALGCLVKDYFPEPVTVSWNSGALTSGVHTFPAVLQSSGLYSLSSVVTVPSSSLGTQTYICNVNHKPSNTKVDKRVEPKSCDKTHTCPPCPAPEFEGGPSVFLFPPKPKDTLMISRTPEVTCVVVDVSHEDPEVKFNWYVDGVEVHNAKTKPREEQYNSTYRVVSVLTVLHQDWLNGKEYKCKVSNKALPASIEKTISKAKGQPREPQVCTLPPSREEMTKNQVSLSCAVKGFYPSDIAVEWESNGQPENNYKTTPPVLDSDGSFFLVSKLTVDKSRWQQGNVFSCSVMHEALHNRFTQKSLSLSPGK
chain 3: DIQLTQSPSTLSASVGDRVTITCRASESLDNYGIRFLTWFQQKPGKAPKLLMYAASNQGSGVPSRFSGSGSGTEFTLTISSLQPDDFATYYCQQTKEVPWSFGQGTKVEVKRTVAAPSVFIFPPSDEQLKSGTASVVCLLNNFYPREAKVQWKVDNALQSGNSQESVTEQDSKDSTYSLSSTLTLSKADYEKHKVYACEVTHQGLSSPVTKSFNRGEC
With B4, in assay [5], the Kd worked out at 69 nM, the koff was determined as 0.0189 s⁻¹ and the kon worked out at 274000 M⁻¹ s⁻¹.
